Patent US7575909B2, “Oxidoreductase from pichia capsulata” (IEP GmbH, priority 2003, dated 2009)

How the values were obtained:
[1] = Solvent stability of the oxidoreductase; type: physicochemical; conditions: RT
Procedure: The enzyme stability of the oxidoreductase from P. capsulata was examined in the presence of organic solvents. For this purpose, the oxidoreductase was in each case diluted 1:20 with the indicated solvent mixtures (in case of water-miscible organic solvents) and was incubated at room temperature (20° C. to 24° C.; RT). Subsequently, 10 μl of the enzyme solution were used in the standard test batch. Also in this case, the initial value was equalled to 100% after dilution in the buffer (potassium phosphate buffer (KPP) 100 mM, pH=7.0), and all the other values were set in relation to said initial value.
In case of water-immiscible organic solvents, the dilution likewise took place in a potassium phosphate buffer, the same volume of an organic solvent was added to the batch and the batch was incubated at RT in a thermomixer at 170 rpm. The activity was measured from the aqueous phase.

[2] = Temperature optimum of the oxidoreductase; type: biochemical
Procedure: In order to determine the optimum test temperature, the enzyme activity was measured in the standard measuring batch in a temperature range of 15° C. to 70° C.

[3] = Temperature stability of the oxidoreductase; type: physicochemical; conditions: after 30 min
Procedure: The temperature stability was determined for the range of 15° C. to 70° C. in a manner analogous to that described under Example 5.2. […] Also in this case, the measured value obtained immediately after diluting the purified oxidoreductase in a potassium phosphate buffer 50 mM pH=7.0 was used as the initial value. Said value was set as a 100% value also in this example.

[4] = pH stability of the recombinant oxidoreductase; type: physicochemical; conditions: pH values above 9.0 and below 5.0
Procedure: The determination of the activity of the recombinant oxidoreductase was examined by storage in the buffer systems mentioned in Table 3. For this purpose, the various buffers (50 mM) were prepared in a pH range of 4 to 11, and the oxidoreductase produced according to Example 4 was diluted therewith. After 30, 60 and 300 min of incubation, 10 μl were removed from the batch and used in the activity test according to Example 1.
Thereby, the initial value is the measured value which was obtained immediately after diluting (1:20) the enzyme in the potassium phosphate buffer 50 mM pH=7.0. Under the given conditions, said value corresponded to an extinction variation of approx. 0.70/min and was set as a 100% value, and all the following measured values were set in relation to said value.

[5] = Enzyme activity on expression of the oxidoreductase in E. coli; type: biochemical, Escherichia coli
Source text: Competent Escherichia coli StarBL21 (De3) cells (Invitrogen) were transformed with the expression construct pET21-PC#10 coding for the oxidoreductase according to the invention.
(§1) The transformed strain was cultivated in an LB medium (1% tryptone, 0.5% yeast extract, 1% NaCl) with ampicillin (50 ig/ml) until an optical density, measured at 500 nm, of 0.5 was reached. The production of the recombinant oxidoreductase protein was initiated by adding isopropylthiogalactoside (IPTG) at a final concentration of 1 mM. The induction batch was incubated for another 15 h at 25° C. and 220 rpm.
Competent Escherichia coli RB791 cells were transformed with the expression construct pQE30-PC#12 coding for the oxidoreductase according to the invention.
as §1, with “adding IPTG” for “adding isopropylthiogalactoside (IPTG)”, “of 0.1” for “of 1”, “15 hours” for “15 h”, “rpm. The enzyme activity achieved amounted to approx. 1000 U/g of wet cell mass.” for “rpm.”

B1: oxidoreductase from Pichia capsulata: NADH-dependent (S)-specific zinc-dependent carbonyl reductase from Pichia capsulata, amino acid sequence SEQ ID NO: 9, 341 amino acids (protein, listed as Pichia capsulata)
chain: MSALSKTQAGYIFKKGAGHIVKAEVPIPKPTGAQSLLRVKAAGMCHSDLHVIGETLEVPTDGYVLGHEIAGELVEIGDSVNPEVFKVGGRYAVHGLNSCGSCEMCRTGHDNDCTGNESKWYGLGISGGYQQYLLVPNSHHLLPIPDNVSYEVAAATSDAVLTPYHAIKNSGVTPSSKVLMFGLGGLGSNALQILKAFGAYVVAVDVKPASKAIADEFKADEFYTDISQSSWKPASFDYCFDFVSLQVTFDICQKYIKSHGTIFPVGLGSSKLTFDLGNLALREVKIVGNFWGTSQEQIEAMELVSSGRVKPQVHTTELENLPESLEKLEEGKINGRLVMLP
[1]; 5% EtOH, 8 h
  Activity: 77%
[1]; 5% EtOH, 24 h
  Activity: 77%
[1]; 5% isopropanol, 8 h
  Activity: 77%
[1]; 5% isopropanol, 24 h
  Activity: 77%
[1]; 10% DSMO, 8 h
  Activity: 42%
[1]; 10% DSMO, 24 h
  Activity: 45%
[1]; 10% EtOH, 8 h
  Activity: 77%
[1]; 10% EtOH, 24 h
  Activity: 77%
[1]; 10% isopropanol, 8 h
  Activity: 72%
[1]; 10% isopropanol, 24 h
  Activity: 72%
[1]; 20% DSMO, 8 h
  Activity: 30%
[1]; 20% DSMO, 24 h
  Activity: 30%
[1]; 20% EtOH, 8 h
  Activity: 100%
[1]; 20% EtOH, 24 h
  Activity: 100%
[1]; 20% isopropanol, 8 h
  Activity: 46%
[1]; 20% isopropanol, 24 h
  Activity: 46%
[1]; 30% EtOH, 8 h
  Activity: 64%
[1]; 30% EtOH, 24 h
  Activity: 64%
[1]; 30% isopropanol, 8 h
  Activity: 18%
[1]; 30% isopropanol, 24 h
  Activity: 18%
[1]; Buffer KPP 100 mM pH = 7, 1 mM MgCl2, 8 h
  Activity: 100%
[1]; Buffer KPP 100 mM pH = 7, 1 mM MgCl2, 24 h
  Activity: 100%
[1]; butyl acetate (same volume, two-phase), 8 h
  Activity: 53%
[1]; butyl acetate (same volume, two-phase), 24 h
  Activity: 28%
[1]; chloroform (same volume, two-phase), 8 h
  Activity: 51%
[1]; chloroform (same volume, two-phase), 24 h
  Activity: 0%
[1]; cyclohexane (same volume, two-phase), 8 h
  Activity: 85%
[1]; cyclohexane (same volume, two-phase), 24 h
  Activity: 70%
[1]; diethyl ether (same volume, two-phase), 8 h
  Activity: 100%
[1]; diethyl ether (same volume, two-phase), 24 h
  Activity: 100%
[1]; diisopropyl ether (same volume, two-phase), 8 h
  Activity: 100%
[1]; diisopropyl ether (same volume, two-phase), 24 h
  Activity: 100%
[1]; ethyl acetate (same volume, two-phase), 8 h
  Activity: 2%
[1]; ethyl acetate (same volume, two-phase), 24 h
  Activity: 0%
[1]; heptane (same volume, two-phase), 8 h
  Activity: 74%
[1]; heptane (same volume, two-phase), 24 h
  Activity: 43%
[1]; hexane (same volume, two-phase), 8 h
  Activity: 60%
[1]; hexane (same volume, two-phase), 24 h
  Activity: 20%
[1]; methyl tert-butyl ether (same volume, two-phase), 8 h
  Activity: 100%
[1]; methyl tert-butyl ether (same volume, two-phase), 24 h
  Activity: 100%
[2]; 15 ° C.
  Activity in U/ml undiluted enzyme: 73 U/ml
[2]; 20 ° C.
  Activity in U/ml undiluted enzyme: 83 U/ml
[2]; 25 ° C.
  Activity in U/ml undiluted enzyme: 128 U/ml
[2]; 30 ° C.
  Activity in U/ml undiluted enzyme: 135 U/ml
[2]; 35 ° C.
  Activity in U/ml undiluted enzyme: 163 U/ml
[2]; 40 ° C.
  Activity in U/ml undiluted enzyme: 170 U/ml
[2]; 45 ° C.
  Activity in U/ml undiluted enzyme: 176 U/ml
[2]; 50 ° C.
  Activity in U/ml undiluted enzyme: 122 U/ml
[2]; 55 ° C.
  Activity in U/ml undiluted enzyme: 45 U/ml
[2]; 60 ° C.
  Activity in U/ml undiluted enzyme: 0 U/ml
[2]; 65 ° C.
  Activity in U/ml undiluted enzyme: 0 U/ml
[2]; 70 ° C.
  Activity in U/ml undiluted enzyme: 0 U/ml
[2]; standard measuring batch, 15° C. to 70° C., listed as recombinant oxidoreductase from P. capsulata
  optimum temperature (maximum activity): 45 °C
[3]
  enzyme activity after incubation at 55° C.: can no longer be detected
[4]
  effect of incubation at extreme pH: immediate deactivation
[5]; E. coli RB791, construct pQE30-PC#12, 0.1 mM IPTG
  enzyme activity achieved: approx. 1000 U/g of wet cell mass
[5]; E. coli StarBL21 (De3), construct pET21-PC#10, 1 mM IPTG
  enzyme activity achieved: approx. 6000 U/g of wet cell mass
